Biological target: hnRNP A1B (heterogenous ribonucleoprotein A1B), mouse (mouse (endogenous in C57BL6/N tissues))
Experiment: SDS-PAGE immunoblot of tissue lysates (SDS-resistant band); 15 ug of mouse tissue lysate (2 month-old mice, CNS and peripheral tissues) on 12.5% SDS-PAGE, blotted with anti-hnRNP A1B (custom) or anti-hnRNP A1 (4B10)

stoichiometry N: 2
Substance: hnRNP A1B (heterogenous ribonucleoprotein A1B), mouse (natural protein)

Reference: PMC8498194
